Source: US20030068675, “Position dependent recognition of GNN nucleotide triplets by zinc fingers” (published 2003)
Where a chain is given by its changes, count along the chain named.

What was measured:
Experiment in all cases: EMSA
Settings in all cases: tags: MBP fusion
ZFP SBS#986 = ZFP SBS#986 (synthetic)
How it was run: (§1)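 Purified ZFP was titrated against labeled double-stranded target (1 nM or lower, at least 10-fold below expected Kd) carrying the natural binding site with flanks. Binding buffer was 10 mM Tris pH 7.5, 100 mM KCl, 1 mM MgCl2, 0.1 mM ZnCl2, 5 mM DTT, 10% glycerol, 0.02% BSA, with equilibration for at least 45 min. Bound and free target were separated on a 10% polyacrylamide gel.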

ZFP SBS#987 = ZFP SBS#987 (synthetic)
How it was run: as §1

ZFP SBS#1032 = ZFP SBS#1032 (synthetic)
How it was run: as §1

ZFP SBS#988 = ZFP SBS#988 (synthetic)
How it was run: as §1

ZFP SBS#1011 = target: T1, ZFP SBS#1011 (synthetic)
T1 chain: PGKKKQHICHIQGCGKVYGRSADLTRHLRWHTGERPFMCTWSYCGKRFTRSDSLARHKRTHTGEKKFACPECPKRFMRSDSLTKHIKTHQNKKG
How it was run: as §1

ZFP SBS#1009 = target: T2, ZFP SBS#1009 (synthetic)
T2 chain: T1 chain with A22D, D23N, T25S, A55T, R56Q, S81N, T83S, K84R
How it was run: as §1

ZFP SBS#1008 = target: T3, ZFP SBS#1008 (synthetic)
T3 chain: T1 chain with A22D, D23N, T25S, A55T, R56Q, S79L, D80H, S81N, T83A, K84R
How it was run: as §1

ZFP SBS#1014 = ZFP SBS#1014 (synthetic)
How it was run: as §1

ZFP SBS#1012 = ZFP SBS#1012 (synthetic)
How it was run: as §1

ZFP SBS#1010 = ZFP SBS#1010 (synthetic)
How it was run: as §1

ZFP SBS#1013 = ZFP SBS#1013 (synthetic)
How it was run: as §1

ZFP SBS#1007 = ZFP SBS#1007 (synthetic)
How it was run: as §1

ZFP SBS#1037 = ZFP SBS#1037 (synthetic)
How it was run: as §1

ZFP SBS#1038 = ZFP SBS#1038 (synthetic)
How it was run: as §1

ZFP SBS#1035 = target: T4, ZFP SBS#1035 (synthetic)
T4 chain: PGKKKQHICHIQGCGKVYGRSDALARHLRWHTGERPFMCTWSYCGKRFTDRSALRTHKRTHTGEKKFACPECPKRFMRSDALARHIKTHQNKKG
How it was run: as §1

ZFP SBS#1034 = target: T5, ZFP SBS#1034 (synthetic)
T5 chain: T4 chain with R55T, T56K
How it was run: as §1

ZFP SBS#1033 = target: T6, ZFP SBS#1033 (synthetic)
T6 chain: T4 chain with R55T
How it was run: as §1

ZFP SBS#996 = target: T7, ZFP SBS#996 (synthetic)
T7 chain: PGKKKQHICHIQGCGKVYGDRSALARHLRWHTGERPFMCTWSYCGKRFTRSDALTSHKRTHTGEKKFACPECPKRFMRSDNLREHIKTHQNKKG
How it was run: as §1

ZFP SBS#1016 = target: T8, ZFP SBS#1016 (synthetic)
T8 chain: T7 chain with A53S, S56K
How it was run: as §1

ZFP SBS#1000 = target: T9, ZFP SBS#1000 (synthetic)
T9 chain: T7 chain with S56R
How it was run: as §1

ZFP SBS#450 = target: T10, ZFP SBS#450 (synthetic)
T10 chain: T7 chain with D20R, R21S, S22D, A23T, S51G, R78D, S79R, D80S, R83T, E84R
How it was run: as §1

ZFP SBS#1015 = ZFP SBS#1015 (synthetic)
How it was run: as §1

ZFP SBS#1002 = target: T11, ZFP SBS#1002 (synthetic)
T11 chain: T1 chain with A22D, D23N, T25V, S53N, S81E, L82R, T83K, K84R
How it was run: as §1

ZFP SBS#1027 = target: T12, ZFP SBS#1027 (synthetic, UniProt P08047)
T12 chain: T1 chain with A22D, D23A, T25A, S53E, A55Q, S81E, T83Q, K84R
How it was run: as §1

ZFP SBS#964 = ZFP SBS#964 (synthetic)
How it was run: as §1

ZFP SBS#258 = ZFP SBS#258 (synthetic)
How it was run: as §1

ZFP SBS#1017 = target: T13, ZFP SBS#1017 (synthetic)
T13 chain: T1 chain with R20E, S21K, D23N, R50T, D52G, S53N, A55V, S81A, T83R, K84E
How it was run: as §1

ZFP SBS#1026 = target: T14, ZFP SBS#1026 (synthetic)
T14 chain: T4 chain with R20M, D22H, A23H, A25K, R26E, D50Q, R51S, A53D, R55S, T56R
How it was run: as §1

ZFP SBS#1022 = target: T15, ZFP SBS#1022 (synthetic)
T15 chain: T1 chain with A22D, D23A, T25A, S53N, S81N, T83A, K84R
How it was run: as §1

ZFP SBS#1025 = ZFP SBS#1025 (synthetic)
How it was run: as §1

ZFP SBS#1024 = target: T16, ZFP SBS#1024 (synthetic, UniProt P08047)
T16 chain: T1 chain with R20Q, D23N, T25A, S53N, S81H, T83S, K84R
How it was run: as §1

ZFP SBS#995 = ZFP SBS#995 (synthetic, UniProt P08047)
How it was run: as §1

ZFP SBS#1018 = ZFP SBS#1018 (synthetic)
How it was run: as §1

ZFP SBS#1019 = ZFP SBS#1019 (synthetic)
How it was run: as §1

ZFP SBS#1015 (synthetic), sequence (chain, as listed by the source): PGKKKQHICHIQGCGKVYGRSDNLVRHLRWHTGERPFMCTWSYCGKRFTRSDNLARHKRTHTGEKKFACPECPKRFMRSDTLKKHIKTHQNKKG
ZFP SBS#1037 (synthetic), sequence (chain, as listed by the source): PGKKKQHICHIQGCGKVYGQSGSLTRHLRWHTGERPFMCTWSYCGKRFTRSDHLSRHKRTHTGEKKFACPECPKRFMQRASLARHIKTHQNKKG
ZFP SBS#1032 (synthetic), sequence (chain, as listed by the source): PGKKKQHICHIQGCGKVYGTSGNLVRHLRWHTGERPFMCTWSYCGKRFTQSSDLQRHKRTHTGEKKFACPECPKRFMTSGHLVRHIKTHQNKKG
ZFP SBS#995, sequence (P08047 other isoform, or with tags, fused parts or gaps): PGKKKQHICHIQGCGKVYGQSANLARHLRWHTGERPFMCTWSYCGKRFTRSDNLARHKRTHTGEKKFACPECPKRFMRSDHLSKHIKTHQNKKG
ZFP SBS#1018 (synthetic), sequence (chain, as listed by the source): as the sequence (P08047 other isoform, or with tags, fused parts or gaps) above, with R50Q, D52S, N53S, A55V, R78Q, S79R, D80A, H81S, S83A, K84R counted along it
ZFP SBS#1010 (synthetic), sequence (chain, as listed by the source): as the sequence (P08047 other isoform, or with tags, fused parts or gaps) above, with A22S, A25Q, R50Q, D52G, N53H, A55T, H81N, S83A, K84R counted along it
ZFP SBS#964 (synthetic), sequence (chain, as listed by the source): as the sequence (P08047 other isoform, or with tags, fused parts or gaps) above, with Q20R, A22D, N23A, N53E, A55Q, H81E, L82R, S83K, K84R counted along it
ZFP SBS#258 (synthetic), sequence (chain, as listed by the source): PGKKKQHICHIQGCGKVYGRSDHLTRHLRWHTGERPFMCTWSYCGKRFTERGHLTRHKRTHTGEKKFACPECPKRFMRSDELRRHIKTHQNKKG
ZFP SBS#1019 (synthetic), sequence (chain, as listed by the source): as the sequence (P08047 other isoform, or with tags, fused parts or gaps) above, with Q20R, A22D, S83T, K84Q counted along it
ZFP SBS#1007 (synthetic), sequence (chain, as listed by the source): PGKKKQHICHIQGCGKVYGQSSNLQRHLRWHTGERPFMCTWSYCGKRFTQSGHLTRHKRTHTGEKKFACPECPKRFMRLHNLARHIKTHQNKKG
ZFP SBS#988 (synthetic), sequence (chain, as listed by the source): as the sequence (P08047 other isoform, or with tags, fused parts or gaps) above, with Q20T, A22G, A25V, R50Q, D52S, N53D, A55Q, R78M, D80H, K84R counted along it
ZFP SBS#1038 (synthetic), sequence (chain, as listed by the source): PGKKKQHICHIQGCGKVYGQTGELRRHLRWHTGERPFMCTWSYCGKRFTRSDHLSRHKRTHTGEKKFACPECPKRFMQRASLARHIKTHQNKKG
ZFP SBS#986 (synthetic), sequence (chain, as listed by the source): as the sequence (P08047 other isoform, or with tags, fused parts or gaps) above, with A22S, A25Q, R50Q, D52S, N53D, A55Q, R78M, D80H, K84R counted along it
ZFP SBS#1025 (synthetic), sequence (chain, as listed by the source): as the sequence (P08047 other isoform, or with tags, fused parts or gaps) above, with A22S, N23A, A25T, R50Q, D52S, N53S, A55V, H81T, S83T, K84Q counted along it
ZFP SBS#1012 (synthetic), sequence (chain, as listed by the source): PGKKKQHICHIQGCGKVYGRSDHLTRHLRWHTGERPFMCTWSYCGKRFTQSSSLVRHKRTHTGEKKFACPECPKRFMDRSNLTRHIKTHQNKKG

B1: GGTGCTGAT (dsDNA)
DNA 1: GGTGCTGAT
DNA 2: ATCAGCACC
Kd (ZFP SBS#986): 1.6 nM | Kd (ZFP SBS#987): 33.5 nM | Kd (ZFP SBS#1032): 0.52 nM | Kd (ZFP SBS#988): 0.15 nM

B2: TTGGTGGCG (dsDNA)
DNA 1: TTGGTGGCG
DNA 2: CGCCACCAA
Kd (ZFP SBS#1011): 0.03 nM

B3: GAGATGGAG (dsDNA)
DNA 1: GAGATGGAG
DNA 2: CTCCATCTC
Kd (ZFP SBS#1009): 1.9 nM | Kd (ZFP SBS#1008): 0.4 nM

B4: GACGTAGGG (dsDNA)
DNA 1: GACGTAGGG
DNA 2: CCCTACGTC
Kd (ZFP SBS#1014): 0.01 nM | Kd (ZFP SBS#1012): 0.032 nM

B5: GAGAGAGAT (dsDNA)
DNA 1: GAGAGAGAT
DNA 2: ATCTCTCTC
Kd (ZFP SBS#1010): 8.2 nM | Kd (ZFP SBS#1013): 0.15 nM | Kd (ZFP SBS#1007): 167 nM

B6: GTAGGGGCA (dsDNA)
DNA 1: GTAGGGGCA
DNA 2: TGCCCCTAC
Kd (ZFP SBS#1037): 0.05 nM | Kd (ZFP SBS#1038): 0.152 nM

B7: GTGTTCGTG (dsDNA)
DNA 1: GTGTTCGTG
DNA 2: CACGAACAC
Kd (ZFP SBS#1035): 56 nM | Kd (ZFP SBS#1034): 14.6 nM | Kd (ZFP SBS#1033): 685 nM

B8: CAGTTGGTC (dsDNA)
DNA 1: CAGTTGGTC
DNA 2: GACCAACTG
Kd (ZFP SBS#996): 9.6 nM | Kd (ZFP SBS#1016): 0.09 nM | Kd (ZFP SBS#1000): 11.2 nM

B9: GACTTGGTGC (dsDNA)
DNA 1: GACTTGGTGC
DNA 2: GCACCAAGTC
Kd (ZFP SBS#450): 130 nM

B10: GCGGAGGAG (dsDNA)
DNA 1: GCGGAGGAG
DNA 2: CTCCTCCGC
Kd (ZFP SBS#1015): 0.008 nM | Kd (ZFP SBS#1002): 0.028 nM

B11: GCGGCGGTG (dsDNA)
DNA 1: GCGGCGGTG
DNA 2: CACCGCCGC
Kd (ZFP SBS#1027): 0.054 nM | Kd (ZFP SBS#964): 0.041 nM

B12: GCGGGCGGG (dsDNA)
DNA 1: GCGGGCGGG
DNA 2: CCCGCCCGC
Kd (ZFP SBS#258): 15 nM

B13: CTGGATGAC (dsDNA)
DNA 1: CTGGATGAC
DNA 2: GTCATCCAG
Kd (ZFP SBS#1017): 0.233 nM

B14: GTGGCTTGT (dsDNA)
DNA 1: GTGGCTTGT
DNA 2: ACAAGCCAC
Kd (ZFP SBS#1026): 0.076 nM

B15: GAGGAGGTG (dsDNA)
DNA 1: GAGGAGGTG
DNA 2: CACCTCCTC
Kd (ZFP SBS#1022): 0.01 nM | Kd (ZFP SBS#1025): 0.115 nM

B16: GGGGAGGAA (dsDNA)
DNA 1: GGGGAGGAA
DNA 2: TTCCTCCCC
Kd (ZFP SBS#1024): 0.08 nM | Kd (ZFP SBS#995): 0.08 nM

B17: GTAGTAGAA (dsDNA)
DNA 1: GTAGTAGAA
DNA 2: TTCTACTAC
Kd (ZFP SBS#1018): 7.2 nM

B18: AGGGAGGAG (dsDNA)
DNA 1: AGGGAGGAG
DNA 2: CTCCTCCCT
Kd (ZFP SBS#1019): 0.022 nM
